Here are results for one protein from article PMC3150272, “Crystal Structure of Reovirus Attachment Protein σ1 in Complex with Sialylated Oligosaccharides” (PLoS Pathogens, 2011).

The series concerns the molecule itself. Briefly: crystal structure; crystals grown in 15% PEG200, 0.1 M MES pH 6.5; space group P2(1)2(1)2, one trimer in the asymmetric unit; soaked with 10 mM α-2,3-sialyllactose, α-2,6-sialyllactose or α-2,8-disialyllactose.

B1: reovirus type 3 Dearing (T3D) attachment protein σ1, body and head domains (residues 170-455), Ile249 (domain or fragment)
chain: VTSAGAPLSIRNNRMTMGLNDGLTLSGNNLAIRLPGNTGLNIQNGGLQFRFNTDQFQIVNNNLTLKTTVFDSINSRIGAIEQSYVASAVTPLRLNSSTKVLDMLIDSSTLEINSSGQLTVRSTSPNLRYPIADVSGGIGMSPNYRFRQSMWIGIVSYSGSGLNWRVQVNSDIFIVDDYIHICLPAFDGFSIADGGDLSLNFVTGLLPPLLTGDTEPAFHNDVVTYGAQTVAIGLSSGGAPQYMSKNLWVEQWQDGVLRLRVEGGGSITHSNSKWPAMTVSYPRSFT
notes: The His6-tagged GCN4 trimerization domain was removed by trypsin before the final purification and crystallization; also called T3D σ1; reovirus attachment protein σ1; source: E. coli Rosetta 2 DE3, purified (Ni-IMAC, on-column trypsin digestion, Superdex-200 SEC); not shown: His6, N-terminal, cleaved; GCN4 trimerization domain (modified GCN4 leucine zipper), N-terminal, cleaved
On to B1, for which the stoichiometry N – broadly, the number of molecules, sites or subunits per partner or assembly – was found to be 3.
